Experimental data as given in patent publication US20180118848A1 (Regeneron, published 2018).
Where a chain is given by its changes, count along the chain named. Blank lines part the entries; values can stand above or below the binder they belong to.

Assays:
human MUC16 (mucin 16) [1] = target: T1, human MUC16 (mucin 16) (human); assay: MSD ECL cell binding, RLU ratio OVCAR-3 vs SK-OV-3, 1.9 nM Ab
T1 construct: Endogenously expressed on human tumour cell lines; also called hMUC16
Method: (§1) The ability of anti-MUC16 antibodies to bind specifically to endogenously expressing MUC16 on the human ovarian carcinoma cell line (OVCAR-3) was evaluated via an electrochemiluminescence based detection assay (Meso Scale Discovery (MSD), Rockville, Md.). […] Detached cells were then washed once in 1×PBS supplemented with Ca²⁺/Mg²⁺ and counted (Cellometer Auto T4 cell counter, Nexcelom Bioscience, Lawrence, Mass.). Approximately 1.0×10⁴ cells were plated in MULTI-ARRAY 96-well carbon electrode plates (MSD) and incubated for 1 h at 37° C. […] Next, serial dilutions of anti-MUC16 or control antibodies (0.85 pM-50 nM) and no-antibody buffer controls were added to the plate-bound cells and incubated for 1 h at room temperature (RT). Plates were then washed to remove the unbound antibodies using an AquaMax2000 plate washer (MDS Analytical Technologies, Sunnyvale, Calif.). Plate-bound antibodies were detected with a SULFO-TAG™-conjugated anti-human kappa light chain antibody (Regeneron) or a SULFO-TAG™-conjugated anti-mouse IgG antibody (Jackson Immunoresearch, West Grove, Pa.) for 1 h at RT. Post-wash, plates were developed with Read Buffer (MSD) according to manufacturer's protocol and luminescent signals were recorded with a SECTOR Imager 6000 (MSD) instrument.
(§2) Luminescence intensity, measured in relative light units (RLU), for the two cell lines was recorded to indicate the binding intensity of each antibody.

human MUC16 (mucin 16) [2] = target: T1, human MUC16 (mucin 16); assay: MSD ECL cell binding, RLU ratio OVCAR-3 vs SK-OV-3, 16.7 nM Ab
Method: as §1, §2

B1: H1M9528N (antibody, mouse IgG1, V domains shown)
VH: QMQLQESGPGLVKPSETLSLTCTVSGGSISSYYWNWIRQPPGKGLEWIGYIYYSGNNFNPSLKSRVTISVDTSKNQFSLKLSSVTAADTAVYYCARAFHWNYEFDYWGQGTLVTVSS
VL: EIVLTQSPGTLSLSPGERATLSCRASQSVSNNYLAWYQQKPGQAPRLLLYGASSRTTDIPDRFSGSGSGTDFTLTISRLEPEDFAVYYCQQYDNSPLTFGGGTKVEIR
notes: Human variable regions, mouse IgG1 constant region
Ratio anti-MUC16 Binding OVCAR-3/SK-OV-3 (human MUC16 (mucin 16) [1]): 153 ratio | Ratio anti-MUC16 Binding OVCAR-3/SK-OV-3 (human MUC16 (mucin 16) [2]): 120 ratio

B3: H3M9524N (antibody, mouse IgG3, V domains shown)
VH: QVQLQQWGAGLLKPSETLSLTCAVYGGSFSDYYWSWIRQPPGKGLEWIGEINHRGKTNYNPSLKSRVSISVDPSKNQFSLKLSSVTAADTAVYYCARQGWNYAIFDYWGQGILVPVSS
VL: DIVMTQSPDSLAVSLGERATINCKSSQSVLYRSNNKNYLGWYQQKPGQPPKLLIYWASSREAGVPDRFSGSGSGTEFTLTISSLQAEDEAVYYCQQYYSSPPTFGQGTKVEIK
notes: Human variable regions, mouse IgG3 constant region
Ratio anti-MUC16 Binding OVCAR-3/SK-OV-3 (human MUC16 (mucin 16) [1]): 81 ratio | Ratio anti-MUC16 Binding OVCAR-3/SK-OV-3 (human MUC16 (mucin 16) [2]): 57 ratio

B4: H1H9525N (antibody, human IgG1, V domains shown)
VH: B3 VH with D31G, R54S, N58T, N60S, S68T, P73T, N76S, W100L, I112T, P115T
VL: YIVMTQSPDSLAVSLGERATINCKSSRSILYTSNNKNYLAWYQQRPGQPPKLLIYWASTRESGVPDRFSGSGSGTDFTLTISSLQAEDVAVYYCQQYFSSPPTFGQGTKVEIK
notes: Human IgG1 form of H3M9525N
Ratio anti-MUC16 Binding OVCAR-3/SK-OV-3 (human MUC16 (mucin 16) [1]): 4 ratio | Ratio anti-MUC16 Binding OVCAR-3/SK-OV-3 (human MUC16 (mucin 16) [2]): 21 ratio

B5: H1H9524N (antibody, human IgG1, V domains shown)
VH: B3 VH
VL: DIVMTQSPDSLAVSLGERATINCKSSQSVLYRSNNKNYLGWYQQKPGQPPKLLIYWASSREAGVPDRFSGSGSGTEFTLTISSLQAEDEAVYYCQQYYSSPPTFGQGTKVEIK
notes: Human IgG1 form of H3M9524N
Ratio anti-MUC16 Binding OVCAR-3/SK-OV-3 (human MUC16 (mucin 16) [1]): 20 ratio | Ratio anti-MUC16 Binding OVCAR-3/SK-OV-3 (human MUC16 (mucin 16) [2]): 48 ratio

B7: H1M7137N (antibody, mouse IgG1, V domains shown)
VH: QVQLQESGPGLVKPSETLSLTCTVSGGAINTYYWSWIRQPPGKGLEWIGYIYYRGNTNYNPSLRSRVTISVDTSKNQFFLKLRSVTVADSAVYFCARGWNYRAEYFQHWGQGTVVTVSS
VL: not shown
notes: as for B1
Ratio anti-MUC16 Binding OVCAR-3/SK-OV-3 (human MUC16 (mucin 16) [1]): 77 ratio | Ratio anti-MUC16 Binding OVCAR-3/SK-OV-3 (human MUC16 (mucin 16) [2]): 29 ratio

B9: H1H8770P (antibody, human IgG1, V domains shown)
VH: QVQLVESGGGVVQPGRSLRLSCAASGFTFSDHGMHWVRQAPGKGLEWVAVISYHGSNKHYADSVKGRFTISRDNSKNALYLQMNSLRPEDTAMYYCAKDGYDFWNGYSLFDYWGQGTLVTVSS
VL: DIQMTQSPSSLSASVGDRVTITCRASQSISNYLNWYQQKPGKAPKLLIYTASNLLSGVPSRFSGSGSGTDFTLTISSLQPEDFATYYCQQSYSTPPITFGQGTKLEIK
notes: Human IgG1
Ratio anti-MUC16 Binding OVCAR-3/SK-OV-3 (human MUC16 (mucin 16) [1]): 9 ratio | Ratio anti-MUC16 Binding OVCAR-3/SK-OV-3 (human MUC16 (mucin 16) [2]): 3 ratio

Now from value to binder:

Ratio anti-MUC16 Binding OVCAR-3/SK-OV-3 (human MUC16 (mucin 16) [1]): 41 ratio | Ratio anti-MUC16 Binding OVCAR-3/SK-OV-3 (human MUC16 (mucin 16) [2]): 18 ratio
B2: H1H9528N (antibody, human IgG1, V domains shown)
VH: B1 VH
VL: B1 VL
notes: Human IgG1 form of H1M9528N

Ratio anti-MUC16 Binding OVCAR-3/SK-OV-3 (human MUC16 (mucin 16) [1]): 137 ratio | Ratio anti-MUC16 Binding OVCAR-3/SK-OV-3 (human MUC16 (mucin 16) [2]): 51 ratio
B6: H3M9525N (antibody, mouse IgG3, V domains shown)
VH: B3 VH with D31G, R54S, N58T, N60S, S68T, P73T, N76S, W100L, I112T, P115T
VL: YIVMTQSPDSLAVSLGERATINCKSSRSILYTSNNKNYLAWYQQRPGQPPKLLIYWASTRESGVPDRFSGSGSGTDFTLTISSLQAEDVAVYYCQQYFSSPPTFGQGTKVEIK
notes: as for B3

Ratio anti-MUC16 Binding OVCAR-3/SK-OV-3 (human MUC16 (mucin 16) [1]): 30 ratio | Ratio anti-MUC16 Binding OVCAR-3/SK-OV-3 (human MUC16 (mucin 16) [2]): 5 ratio
B8: H2M7135N (antibody, mouse IgG2, V domains shown)
VH: EVQLVESGGGLVQAGGSLRLSCAASGFTFSYHEMNWVRQAPGKGLEWVSYIGSRGTTKHYADPVKGRFTISRDNAKNSLYLQMNSLRAEDTAVYYCASEVGSILGYSMDVWGQGTTVTVSS
VL: B9 VL with I29V, N31R, Y36C, I48T, T50A, N53S, L55Q, T85A, Y87F, K104R
notes: Human variable regions, mouse IgG2 constant region

Ratio anti-MUC16 Binding OVCAR-3/SK-OV-3 (human MUC16 (mucin 16) [1]): 11 ratio | Ratio anti-MUC16 Binding OVCAR-3/SK-OV-3 (human MUC16 (mucin 16) [2]): 4 ratio
B10: H1H8783P (antibody, human IgG1, V domains shown)
VH: B9 VH with G33A, S56T, N57D, H59Q, A61G, G106A
VL: B9 VL with N53S, K104R
notes: Human IgG1
